Patent US20140056893A1 (Eli Lilly, published 2014)

Molecular target: human glucagon-like peptide 1 receptor (hGLP-1R) (human, UniProt P43220 24-463)
Assay: cell-based or functional assay

In vitro potency (EC50), hGLP-1R-stimulated cAMP functional assay (Alpha Screen) in hGLP-1R-HEK293 cells: 0.067 nM
B1: Homodimeric protein wherein the amino acid sequence of each polypeptide of said protein is SEQ ID NO: 1 (Fc fusion)
chain: HGEGTFTSDVSSYLEEQAAKEFIAWLVAGGGGGGGSGGGGSGGGGSESKYGPPCPPCPAPEAAGGPSVFLFPPKPKDTLMISRTPEVTCVVVDVSCEDPEVQFNWYVDGVEVHNAKTKPREEQFNSTYRVVSVLTVLHQDWLNGKEYKCKVSNKGLPSSIEKTISKAKGQPREPQVYTLPPSCEEMTKNQVSLTCLVKGFYPSDIAVEWESNGQPENNYKTTPPVLDSDGSFFLYSRLTVDKSRWQEGNVFSCSVMHEALHNHYTQKSLSLSLGGGGGSGGGGSGGGGSAHPIPDSSPLLQFGGQVRQRYLYTDDAQQTECHLEIREDGTVGCAADQSPESLLQLKALKPGVIQILGVKTSRFLCQRPDGALYGSLHFDPEACSFREDLKEDGYNVYQSEAHGLPLHLPGDKSPHRKPAPRGPARFLPLPGLPPALPEPPGILAPQPPDVGSSDPLRLVEPSCLRSPSFE
